Assay results published in patent publication US20240327815A1.

Assays:
[1] = biological target: B.1.1.7 (Alpha) SARS-CoV-2 spike protein, plate-coated (MSD) (SARS-CoV-2) (UniProt P0DTC2); assay: MSD competition vs labelled ACE2
[2] = biological target: Delta SARS-CoV-2 spike protein, plate-coated (MSD) (SARS-CoV-2) (UniProt P0DTC2); assay: MSD competition vs labelled ACE2
[3] = biological target: B.1.351 (Beta) SARS-CoV-2 spike protein, plate-coated (MSD) (SARS-CoV-2) (UniProt P0DTC2); assay: MSD competition vs labelled ACE2
[4] = biological target: Omicron SARS-CoV-2 spike protein, plate-coated (MSD) (SARS-CoV-2) (UniProt P0DTC2); assay: MSD competition vs labelled ACE2
[5] = biological target: SARS-CoV-2 Delta (B.1.617.2) spike RBD (SPR) (SARS-CoV-2) (UniProt P0DTC2); assay: SPR
[6] = biological target: SARS-CoV-2 Delta (B.1.617.2) spike RBD (SPR) (SARS-CoV-2) (UniProt P0DTC2); assay: SPR, 1:1 model
[7] = biological target: Beta SARS-CoV-2 spike on pseudotyped lentivirus (SARS-CoV-2) (UniProt P0DTC2); assay: cell-based or functional assay
[8] = biological target: Alpha SARS-CoV-2 spike on pseudotyped lentivirus (SARS-CoV-2) (UniProt P0DTC2); assay: cell-based or functional assay

In the case of Bamlanivimab + Etesevimab, the IC50 [1] is reported as 80 pM, the IC50 [2] is reported as 160 pM and the IC50 [3] is reported as 310 pM. For the same substance, the IC50 [4] was 590 pM.
With REGN10933 (Casirivimab) (antibody) the Kd [5] was 69.6 pM and the Kd [6] was 69.6 pM.
With Sotrovimab (antibody) the Pseudovirus Neutralization (IC50, nM) [7] was 0.01 nM and the Pseudovirus Neutralization (IC50, nM) [8] was 3.32 nM.
REGN10987 (Imdevimab) (antibody) showed a Kd [5] of 105 pM and a Kd [6] of 105 pM.
